Data taken from publication doi:10.64898/2025.12.24.696318, “TRAF6 coiled-coil domain mediates its trimerization” (bioRxiv, 2025).

Target: the molecule itself
Experiment: SEC-MALS; Superdex 200 Increase 10/300; 20 mM Tris-HCl pH 8.0, 150 mM NaCl; 0.5 mL/min; His6-TRAF6-CC at 1 and 6.57 mg/ml, tagless TRAF6-CC at 0.934 and 1.57 mg/ml; calibrated with BSA

| Protein | stoichiometry N |
| --- | --- |
| His6-THROM-TRAF6-CC (human TRAF6 coiled-coil domain, residues 288-348, with N-terminal His6 tag and thrombin cleavage site) (domain or fragment, UniProt Q9Y4K3 288-348, looked up, TRAF6, human, UniProt Q9Y4K3, coiled-coil domain, residues Y288-Q348; Cloned in pET28a between NdeI and XhoI; a thrombin cleavage site lies between the His6 tag and the domain; Printed mass of the tagged monomer is 9.61 kDa; also called His6-TRAF6-CC; hexahistidine-tagged TRAF6-CC; source: E. coli BL21-CodonPlus (DE3) RIPL, purified (Ni-NTA, SEC); not shown: His6, N-terminal, kept) YISEVRNFQETIHQLEGRLVRQDHQIRELTAKMETQSMYVSELKRTIRTLEDKVAEIEAQQ | 3 |
| tagless TRAF6-CC (human TRAF6 coiled-coil domain, residues 288-348, His6 tag removed by thrombin) (domain or fragment, UniProt Q9Y4K3 288-348, looked up, TRAF6, human, UniProt Q9Y4K3, coiled-coil domain, residues Y288-Q348; Made from m1 by bovine thrombin; source: E. coli BL21-CodonPlus (DE3) RIPL, purified (Ni-NTA, thrombin cleavage, reverse Ni-NTA, SEC); not shown: His6, N-terminal, cleaved) YISEVRNFQETIHQLEGRLVRQDHQIRELTAKMETQSMYVSELKRTIRTLEDKVAEIEAQQ | 3 |
